Patent publication US20090149339A1 (published 2009)
Ends that are not written are not given here. * marks the point of attachment. Biotin = O=C1N[C@H]2[C@H](CS[C@H]2CCCCC(=O)*)N1

What was measured:
[1] = molecular target: T1, GST-NeDLG PDZ domain fusion protein (presynaptic protein sao102, neuroendocrine-dlg; PDZ domains 1-2 of 3) (UniProt P08515 1-218 = GST); assay: G assay
T1 construct: also called NeDLG1

[2] = molecular target: T2, GST-PSD95 PDZ domain fusion protein (human post-synaptic density protein 95 AA387-724; PDZ domains 1-3 of 3) (human, UniProt P08515 1-218 = GST); assay: G assay
[3] = molecular target: T3, GST-MPP1 PDZ domain fusion protein (55 Kd erythrocyte membrane protein AA101-186; PDZ domain 1 of 1) (UniProt P08515 1-218 = GST); assay: A/G assays
[4] = molecular target: T4, GST-AF6 PDZ domain fusion protein (af-6 protein AA985-1077; PDZ domain 1 of 1) (UniProt P08515 1-218 = GST); assay: A assay
[5] = molecular target: T5, GST-MPP2 PDZ domain fusion protein (maguk p55 subfamily member 2 (DLG2) AA185-273; PDZ domain 1 of 1) (UniProt P08515 1-218 = GST); assay: A assay
T5 construct: also called MMP2

[6] = molecular target: T6, GST-41.8 kD PDZ domain fusion protein (hypothetical 41.8 kD protein AA4-85; PDZ domain 1 of 1) (UniProt P08515 1-218 = GST); assay: A assay
T6 construct: also called hypoth

[7] = molecular target: GST-prIL16 PDZ domain fusion protein (putative interleukin 16 precursor AA170-383; PDZ domains 1-2 of 2) (UniProt P08515 1-218 = GST); assay: A/G assays
[8] = molecular target: T7, GST-KIAA0316 PDZ domain fusion protein (KIAA0316 AA197-284; PDZ domain 1 of 1) (UniProt P08515 1-218 = GST); assay: A/G assays
T7 construct: also called K316

[9] = molecular target: T8, GST-KIAA0303 PDZ domain fusion protein (KIAA0303 AA652-742; PDZ domain 1 of 1) (UniProt P08515 1-218 = GST); assay: A/G assays
T8 construct: also called K303

[10] = molecular target: GST-LIMK2 PDZ domain fusion protein (human LIM domain kinase 2 AA185-275; PDZ domain 1 of 1) (human, UniProt P08515 1-218 = GST); assay: A/G assays
[11] = molecular target: T9, GST-RGS12 PDZ domain fusion protein (human regulator of G-protein signalling 12 AA35-103; PDZ domain 1 of 1) (human, UniProt P08515 1-218 = GST); assay: A/G assays
T9 construct: also called RSG12

[12] = molecular target: T10, GST-CBP PDZ domain fusion protein (Cytohesin binding protein HE AA85-175; PDZ domain 1 of 1) (UniProt P08515 1-218 = GST); assay: A/G assays
T10 construct: also called Prot

[13] = molecular target: T11, GST-CASK PDZ domain fusion protein (CASK AA495-584; PDZ domain 1 of 1) (mouse, UniProt P08515 1-218 = GST); assay: A/G assays
T11 construct: also called mCASK

[14] = molecular target: T12, GST-TAX40 PDZ domain fusion protein (human tax interaction protein 40 AA35-137; PDZ domain 1 of 1) (human, UniProt P08515 1-218 = GST); assay: A/G assays
T12 construct: also called TX 40

[15] = molecular target: GST-NOS1 PDZ domain fusion protein (human neuronal nitric oxide synthase; PDZ domain 1 of 1) (human, UniProt P08515 1-218 = GST); assay: A/G assays
[16] = molecular target: GST-TIAM1 PDZ domain fusion protein (T-lymphoma invasion and metastasis inducing protein 1 AA1001-1088); PDZ 1 … (UniProt P08515 1-218 = GST); assay: A/G assays
[17] = molecular target: T13, GST-TAX33 PDZ domain fusion protein (tax interaction protein 33 AA73-162; PDZ domain 1 of 1) (UniProt P08515 1-218 = GST); assay: A/G assays
T13 construct: also called TX33

[18] = molecular target: T14, GST-SYN1a PDZ domain fusion protein (alpha1-syntrophin AA96-189; PDZ domain 1 of 1) (UniProt P08515 1-218 = GST); assay: A/G assays
T14 construct: also called SYN 1 alpha; SYNTR 1 alpha

[19] = molecular target: T15, GST-TAX2 PDZ domain fusion protein (human tax interaction protein 2 AA54-140; PDZ domain 1 of 1) (human, UniProt P08515 1-218 = GST); assay: A/G assays
T15 construct: also called TX 2

[20] = molecular target: T16, GST-DVL1 PDZ domain fusion protein (human dishevelled segment polarity protein homolog AA248-340); PDZ domain … (human, UniProt P08515 1-218 = GST); assay: A/G assays
[21] = molecular target: GST-LIM PDZ domain fusion protein (Human LIM protein AA29-112; PDZ domain 1 of 1) (human, UniProt P08515 1-218 = GST); assay: A/G assays
[22] = molecular target: T17, GST-KIAA0559 PDZ domain fusion protein (KIAA0559 AA766-870; PDZ1 of 1) (UniProt P08515 1-218 = GST); assay: A/G assays
T17 construct: also called K559

[23] = molecular target: GST-MINT3 PDZ domain fusion protein (human MINT3 AA11-52; PDZ domain 1 of 1) (human, UniProt P08515 1-218 = GST); assay: A/G assays
[24] = molecular target: T18, GST-TAX43 PDZ domain fusion protein (human tax interaction protein 43 AA15-85; PDZ domain 1 of 1) (human, UniProt P08515 1-218 = GST); assay: A/G assays
T18 construct: also called TX 43

[25] = molecular target: T19, GST-PTN-4 PDZ domain fusion protein (protein-tyrosine phosphatase meg1 AA774-862; PDZ domain 1 of 1) (UniProt P08515 1-218 = GST); assay: A/G assays
[26] = molecular target: T5, GST-MPP2 PDZ domain fusion protein …; assay: G assay
[27] = molecular target: T14, GST-SYN1a PDZ domain fusion protein …; assay: G assay
[28] = molecular target: T3, GST-MPP1 PDZ domain fusion protein (55 …); assay: A assay
[29] = molecular target: T15, GST-TAX2 PDZ domain fusion protein …; assay: A assay
[30] = molecular target: T16, GST-DVL1 PDZ domain fusion protein …; assay: A assay
[31] = molecular target: T18, GST-TAX43 PDZ domain fusion protein …; assay: A assay
[32] = molecular target: T1, GST-NeDLG PDZ domain fusion protein …; assay: A and G assays
[33] = molecular target: T9, GST-RGS12 PDZ domain fusion protein …; assay: A and G assays
[34] = molecular target: T6, GST-41.8 kD PDZ domain fusion protein …; assay: A and G assays
[35] = molecular target: T2, GST-PSD95 PDZ domain fusion protein …; assay: A and G assays
[36] = molecular target: T19, GST-PTN-4 PDZ domain fusion protein …; assay: A and G assays
[37] = molecular target: T4, GST-AF6 PDZ domain fusion protein (af-6 …); assay: A/G assays

Measured: binding result

T19 sequence (P08515 1-218, tags or fused parts left off): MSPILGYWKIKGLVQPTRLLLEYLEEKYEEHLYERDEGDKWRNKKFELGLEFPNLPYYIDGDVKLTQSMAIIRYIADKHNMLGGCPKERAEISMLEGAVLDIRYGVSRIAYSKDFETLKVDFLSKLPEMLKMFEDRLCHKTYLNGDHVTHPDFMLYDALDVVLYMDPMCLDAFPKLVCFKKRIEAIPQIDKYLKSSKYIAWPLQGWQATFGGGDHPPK
T18 sequence (P08515 1-218, tags or fused parts left off): as above
GST-LIM PDZ domain fusion protein (Human LIM protein AA29-112; PDZ domain 1 of 1), sequence (P08515 1-218, tags or fused parts left off): as above
GST-prIL16 PDZ domain fusion protein (putative interleukin 16 precursor AA170-383; PDZ domains 1-2 of 2), sequence (P08515 1-218, tags or fused parts left off): as above
T2 sequence (P08515 1-218, tags or fused parts left off): as above
T15 sequence (P08515 1-218, tags or fused parts left off): as above
T7 sequence (P08515 1-218, tags or fused parts left off): as above
GST-MINT3 PDZ domain fusion protein (human MINT3 AA11-52; PDZ domain 1 of 1), sequence (P08515 1-218, tags or fused parts left off): as above
T14 sequence (P08515 1-218, tags or fused parts left off): as above
T12 sequence (P08515 1-218, tags or fused parts left off): as above
T11 sequence (P08515 1-218, tags or fused parts left off): as above
T3 sequence (P08515 1-218, tags or fused parts left off): as above
GST-NOS1 PDZ domain fusion protein (human neuronal nitric oxide synthase; PDZ domain 1 of 1), sequence (P08515 1-218, tags or fused parts left off): as above
GST-TIAM1 PDZ domain fusion protein (T-lymphoma invasion and metastasis inducing protein 1 AA1001-1088); PDZ 1 …, sequence (P08515 1-218, tags or fused parts left off): as above
GST-LIMK2 PDZ domain fusion protein (human LIM domain kinase 2 AA185-275; PDZ domain 1 of 1), sequence (P08515 1-218, tags or fused parts left off): as above
T13 sequence (P08515 1-218, tags or fused parts left off): as above
T4 sequence (P08515 1-218, tags or fused parts left off): as above
T5 sequence (P08515 1-218, tags or fused parts left off): as above
T16 sequence (P08515 1-218, tags or fused parts left off): as above
T6 sequence (P08515 1-218, tags or fused parts left off): as above
T1 sequence (P08515 1-218, tags or fused parts left off): as above

B1: Glycophorin C C-terminal PL peptide AA37L, biotinylated (peptide)
peptide: Biotin-QGDPALQDAGDSSRKEYFI
notes: also called GC
no binding: [3] | [7] | [8] | [9] | [10] | [11] | [12] | [13] | [14] | [15] | [16] | [17] | [18] | [19] | [20] | [21] | [22] | [23] | [24] | [25]
binds: [1] | [2] | [4] | [5] | [6]

B2: NMDA C-terminal PL peptide AA34.2L, biotinylated (peptide)
peptide: Biotin-LNSCSNRRVYKKMPSIESDV
binds: [26] | [27] | [28] | [29] | [30] | [31] | [32] | [33] | [34] | [35] | [36]
no binding: [7] | [8] | [37] | [9] | [10] | [12] | [13] | [14] | [15] | [16] | [17] | [21] | [22] | [23]
